In this assay the target is homotypic K48-polyUb cyB1-NT^K64 (GST-bound single-lysine N-terminal fragment of cyclin B1 ubiquitinated with Ub^K48) (UniProt P0CG48). In words: pull-down; resin-bound polyUb conjugates (≈20 nM) incubated with purified 26S proteasomes (10 nM) at 4°C, washed; bound proteasomes measured by cleavage of suc-LLVY-AMC at 37°C (one panel also with 300 nM hHR23A).

This note sets out measurements from publication PMC4533228.

Sequence of homotypic K48-polyUb cyB1-NT^K64 (GST-bound single-lysine N-terminal fragment of cyclin B1 ubiquitinated with Ub^K48) (P0CG48 whole entry, looked up, the tested form may be a part): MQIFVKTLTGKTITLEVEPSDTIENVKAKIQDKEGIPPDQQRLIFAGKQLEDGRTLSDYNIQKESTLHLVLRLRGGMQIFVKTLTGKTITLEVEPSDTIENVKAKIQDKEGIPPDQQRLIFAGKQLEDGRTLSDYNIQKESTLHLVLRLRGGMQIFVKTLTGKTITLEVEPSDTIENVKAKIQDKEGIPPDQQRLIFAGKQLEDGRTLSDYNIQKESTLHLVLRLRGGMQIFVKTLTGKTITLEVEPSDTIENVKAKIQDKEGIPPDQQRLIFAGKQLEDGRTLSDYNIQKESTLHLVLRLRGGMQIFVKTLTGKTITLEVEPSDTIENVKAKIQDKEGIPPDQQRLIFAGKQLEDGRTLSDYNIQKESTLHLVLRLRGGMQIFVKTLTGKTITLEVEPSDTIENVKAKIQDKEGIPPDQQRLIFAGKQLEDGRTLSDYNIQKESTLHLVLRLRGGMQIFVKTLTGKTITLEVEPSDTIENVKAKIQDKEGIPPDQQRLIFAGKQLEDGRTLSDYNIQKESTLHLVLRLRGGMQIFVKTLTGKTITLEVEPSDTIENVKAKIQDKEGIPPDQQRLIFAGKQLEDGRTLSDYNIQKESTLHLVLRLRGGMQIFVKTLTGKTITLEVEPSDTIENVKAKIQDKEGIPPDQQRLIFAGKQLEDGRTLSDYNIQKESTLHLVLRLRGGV

The substance “26S proteasome purified from rabbit muscle (complex)” displayed a fold binding relative to K11 chains (K11-polyUb cyB1-NT^K64) of 4.5 fold.
